Experimental data reported in patent publication US6750046.

Target: thrombin
Experiment: cell-based or functional assay
Conditions: for Antithrombin Units per mg Oil Body Proteins: scale: antithrombin units per mg oil body protein; for Thrombin Units Per Assay: scale: thrombin units per assay

Antithrombin Units per mg Oil Body Proteins | Thrombin Units Per Assay | Molecule
0.55 | 0.0065 | hirudin released from the oleosin/hirudin fusion by Factor Xa
< 0.001 | 0.14 | Arabidopsis oleosin/hirudin fusion (protein, part only; not given: Factor Xa cleavage junction, Hirudo medicinalis, not shown: small tags and cut ends) chain, part: MADTARGTHHDIIGRDQYPMMGRDRDQYQMSGRGSDYSKSRQIAKAATAVTAGGSLLVLSSLTLVGTVIALTVATPLLVIFSPILVPALITVALLITGFLSSGGFGIAAITVFSWIYKYATGEHPQGSDKLDSARMKLGSKAQDLKDRAQYYGQQHTGGEHDRDRTRGGQHTT
